{
  "source": "paper doi:10.1101/2025.07.03.663104",
  "about": "(bioRxiv, 2025)",
  "binders": {"B1": {"name": "OsPR5-His (natural protein)", "chain": "ATFTITNRCSFTVWPAATPVGGGVQLSPGQTWTINVPAGTSSGRVWGRTGCSFDGSGRGSCATGDCAGALSCTLSGQKPLTLAEFTIGGSQDFYDLSVIDGYNVAMSFSCSSGVTVTCRDSRCPDAYLFPEDNTKTHACSGNSNYQVVFCP"}},
  "molecular_target": "ThBP24k (recombinant, no tag named) (Magnaporthe oryzae, UniProt G4NG01)",
  "test": "BLI",
  "conditions": "both partners purified",
  "data": [
    {"binder": "B1", "values": [
      {"measurement": "Kd", "result": 2.41, "unit": "nM"}
    ]}
  ]
}
